The series can be described thus: yeast display, Sf9 membrane polyspecificity reagent, FACS + sequencing; frameworks hold sequencing errors. In short, it runs like this:
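Galactose induction of a Saccharomyces cerevisiae BJ5465 synthetic nanobody display library ran 36–48 hours. The cells were then stained for 1 hour at 4 °C with 10% biotinylated, detergent-solubilized Sf9 membrane reagent, pulled down on streptavidin microbeads and FACS-sorted into low and high (top ~1%) gates on expression and reagent-binding fluorescence. Labels for polyreactivity follow the gate of origin.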
Regarding “QVQLVESGGGLVQAGGSLRLICAASGSTFAYNTMGWYRPAPGKERELVAAISWRGTRTYYADSVKGRFTISRDNAKNTVYLQMNSLKPEDTAVYYCATKYGISYDYWGLGTQVTVSS”, the “polyreactivity (PSR sort gate)” value is reported as “high polyreactivity”.

As for “QVQLVESGGGLVQAGGSLRLSCAASGSIFWANAKGWYRQAPGKERELVATITSGGRTYYADSVKGRFTISRDNAKNTVYLQMNSLKPEDTAVYYCARVPPQYRWGRRLVYVHVDYWGQGTQVTVSS”, the “polyreactivity (PSR sort gate)” value is listed as “low polyreactivity”.

Regarding “QDQLVESGGGLVQAGGSLRLSCAASVFIFYSYTRGWYRQAPGKERELVATISSNGGRTYYADSVKGRFTISRDNAKNTVYLQMNSLKPEDTAVYYCATDVPHGYYWSYGDYYCGQGTQVTVSS”, the “polyreactivity (PSR sort gate)” value is on record as “low polyreactivity”.

For “QVQLVESGGGLVQAGGSLRLSCAASGFIFWSNAMGWYRQAPGKERELVAAINSSGGRTYYADSVKGRFTISRDNAKNTVYLQMNSLKPEDTAVYYCAARLHSPRYRYDYWGQGTQVTVSS”, the “polyreactivity (PSR sort gate)” value is “high polyreactivity”.

Regarding “QVQLVDSGGGLLQAGGSLRLSCAASGNIFGRYAMGWYRQAPGKEREFVATITYSGGSTYYADSVKGRFTISRDNAKNTVYLQMNSLKPEDTAVYYCAARVGRPSLVAAKYDYWGQGTQVTVSS”, the “polyreactivity (PSR sort gate)” value is reported as “high polyreactivity”.

As for “QVQLQESGGGLVQAGGSLRLSCAASGTILYSLGMGWYRQAPGKRREFVASITWGTTTNYAESVKGRFTISRDNAKNTVYPQMNSLKPEDTAVYDCAAPPFGDSSYHYWGQGTQVTVSS”, the “polyreactivity (PSR sort gate)” value is recorded as “low polyreactivity”.

Turning to “QVQLVESGGGLVQAGGSLRLSCAASGSIYSNAMGWYRQAPGKERELVAAISWRDGRTYYADSVKGRFTISRDNAKNTVYLQMNSLKPEDTAVYYCNADSRPLSTYYYWGQGTQVTVSS”, the “polyreactivity (PSR sort gate)” value is given as “low polyreactivity”.

As to “QVQLVESGGVLVQAGGSLRLSCAAYGFIFDYYAMGWYRQAPGKERELVAAITSRGGSTYYADSVKGRFTISRDNAKNTVYLQMNSLKPEDSAVYYCAARRRSAEYNYWGQGTQVTVSS”, the “polyreactivity (PSR sort gate)” value is given as “high polyreactivity”.

Take “QVQLVESGGGLVQAGGSLRLSCAASGRTFTKYAMGWYRQAPGKERELVATIRGRGGSTYYADSVKGRFTISRDNAKYTVYLQMNSLKPEDTAVYYCAADYWFSSRKYDYWGQGTQVTVSS”: the “polyreactivity (PSR sort gate)” value is recorded as “high polyreactivity”.

On to “QVQLAESGGCLVQAGGTLRLSCAASGSTSAKNVMGWYRQPPGKERELVAAISRSGGRTYYADSVKGRFTISRDNAKNTVFLQMNSLKPEVSAVYYCANDYGGYYSRYDYWGQGTQVTVSS”, for which the “polyreactivity (PSR sort gate)” value is “high polyreactivity”.

Take “HVQLVESGGGIVQAGGSLRLSCAASGSTYVTNDMGSYRQAPGKERELVAAIYSGTSTNYADSVKGRFTISRDNAKNTVYLQMNSLKPEDTAVYYCAADSLKRYDYWGQGTQVSVSS”: the “polyreactivity (PSR sort gate)” value is listed as “low polyreactivity”.

In the case of “QVQLVESGGGLVQAGGSLRLSCAASARILRRNAMGWYRQAPGKEREFVAAITWRGGSTYYADSVKGRFTISRDNAKNTVYLQMNSLKPEDTAVYYCAADTYSVEYVLPYYYWGQGTQVTVSS”, the “polyreactivity (PSR sort gate)” value was “high polyreactivity”.

“QVQLVESGGGLVQAGGSLRLSCAASGFIFWRYAMGWYRQAPGKERELVAAITSGGRTNYADSVKGRFTISRDNAKNTVYLQMNSLKPEDTAVYYCAADRSWSPRAGWYDYWGQGTQVTVSS”: the “polyreactivity (PSR sort gate)” value is given as “high polyreactivity”.

Take “QVQLVESGGGLVQAGGSLRLSCAASGRTFTHYAMGWYRQAPGKERELVAVITTGGSTYYADSVKGRFTISRDNAKNTVYLQMNSLKPEDTAVYYCAATALSGLGYWGQGTQVTVSS”: the “polyreactivity (PSR sort gate)” value is “low polyreactivity”.

On to “QVQLVESGGGLVQAGGSLRLSCAASGRTFGFYAMGWDRQAPGKERELVAVITWSVTSTYYADSVKGRFTISRDNAKNTVYLQMNSLKPEDTAVYYCAAEYVVGASSVRDSLDYGYWGQGTQVTVSS”, for which the “polyreactivity (PSR sort gate)” value is “high polyreactivity”.

In the case of “QVQLVESGGCLGQAGGSLRLTCAASAFTFRHYTKGWYRQAPGKVRVLVAVITRSGGSTYYADSVKGRFTISRDNAKNTVYLQMNRLKPEDTAVYYCAARYKREYNYWGQGTQVTVSS”, the “polyreactivity (PSR sort gate)” value is on record as “high polyreactivity”.

In the case of “QVQLVESGGGLVQAGGSLRLICAASGFIFPQNAMGWYRQAPGKERELLAAISKRGGSTYYADSVKGRFTISRDYAKNTVYLQMNSLKPEDTAVYYCAAGYRTRRGLGYYYWGQGTQVTVSS”, the “polyreactivity (PSR sort gate)” value is reported as “high polyreactivity”.

Consider “QVQLVESGGGLVQAGGSLRLTCAASGRIFNIYAMGWYRQAPGKERELVAAISVSGTRTYYADSVKGRFTISRDNAKNTVYLHMNSLKPEDTAVYYCAADSYGGVWTEHMYYWGQGTQVTVSS”, for which the “polyreactivity (PSR sort gate)” value was “low polyreactivity”.

For the sequence “QVQLVESGGGLVQAGGSLRLSCAASGFIFSRYAMGWYRQAPGKEREFVAANSWSGGRTYYADSVKGRFTISRDNAKNTVYLQMNSLKPEDTAVYFCAARGYYPARHGTGGYWGQGTQVTVSS”, the “polyreactivity (PSR sort gate)” value is recorded as “high polyreactivity”.

“HVELVDSGGGLVQAGGSLRLSCAASGSIFTDNTRGWFRQAPAKDRELVASISSGGRTYYADSVKGRFTISRDNAKNTVYLQMNSLKPEDTAVSYCAVSCWWKHNYWGQGTQVTVSS”: the “polyreactivity (PSR sort gate)” value is “high polyreactivity”.

Take “QVQLVESGGGLVQAGGSLRLSCAASGRTFGIYAMGWYRQAPGKERELVATISWRGGSTYYADSVKGRFTISRDNAKNTVYLQMNSLKPEDTAVSYCAAGYYPYWGQGTQVTVSS”: the “polyreactivity (PSR sort gate)” value is listed as “low polyreactivity”.

“QVQLVESGGGLVQAGGSLRLICAASGSIFSWYTMGWYRQAPGKERELVARITTSGGTTRYADSVKGRFTISRDNAKHTAFIQMNSLKPVDTAVYYCAADRSPYWRGYVRYNYWGQGTQVTVSS”: the “polyreactivity (PSR sort gate)” value is recorded as “high polyreactivity”.

Regarding “QVQLVETRGGLVQAGGSLRLSCAASGSIFLQNAMGWYRQAPGKERELVAAITNGGSTNYADSVKGRFTISRDNAKNTVYLQMNSLKPEDTAVYYCAAYPLYTGSYDRGGYWGQGTQVTVSS”, the “polyreactivity (PSR sort gate)” value was “low polyreactivity”.

For the sequence “QVQLVESRGGLVQAGGSLRLSCAASGSIFYDNAMGWYRQAPWKEREFVAAISLRTGRTYYADSVKGRFTISRDNAKNTVYLQMNSLKPEDTAVFYCAARGYYGPKYYYWGQGTQVTVSS”, the “polyreactivity (PSR sort gate)” value is recorded as “high polyreactivity”.

Turning to “QVQLVESGGGLVQAGGSLRLSCAASGSTFYYYTMGWYRQAPGKERELVASISGNVGSTSYADSVKGRFTISRDNAKNTVYLQMNSLKPEDTAVYYCNTDWGYYHSPDSDYWGQGTQVTVSS”, the “polyreactivity (PSR sort gate)” value is given as “low polyreactivity”.

For “QVQHVESGGGLVQAGGSLRLSCASSGSTFRYNAMGWYRQAPVKERELVAAISSSGGSTYYADSVKGRFTISRDNAKNTVYLQMNSLKPEDPEVYYCAAPTRSRFKGYYYWGQGTQVTVSS”, the “polyreactivity (PSR sort gate)” value was “high polyreactivity”.

Consider “QGQLVESVGGLVQAGVSLRLSCAASGRIFPSYAMGCYRPAPGKERELVAAISSSGGRTYYADSVKGRFTISRDNAKNTVYLQMNSLKPEDTAVYYCAARWVHYGVRYDYWGPGTQVTVSS”, for which the “polyreactivity (PSR sort gate)” value is “high polyreactivity”.

Consider “QVQLVESGRGIVQAGGSLRLSCAASGSIFGWYAMGWYRQAPGKERELVASNSVTAGSTYYADSVKWRFTISRDNAKNTVYLLMYSLKPVYTAVYYCASDDDTADAVQLFYYWGQGTHVTVSS”, for which the “polyreactivity (PSR sort gate)” value is “low polyreactivity”.

“QVQLVESGGGLVQAGGSLRLSCAASGFIFRGNARGWYRQAPGKERELVAAISVRGGRTYYADSVKGRFTISRDNAKNTVYLQMNSLKPEDTAVYDCAADLYNRGRGSSQSYRTGYDYWGQGTQVTVSS”: the “polyreactivity (PSR sort gate)” value was “high polyreactivity”.

As for “QVQLVESAGGLVQEGGSLRLSCAASGSISAPYAMGWYRQAPGKERELVAAISWRGGRTYYADSVKGRFTISRDNAKNTVYLQMNSLKTEDTAVDYCAAKFRLGQFDYDYWGQGTQVTVSS”, the “polyreactivity (PSR sort gate)” value is reported as “high polyreactivity”.

These data come from the nanobody polyreactivity screen of Harvey et al. (2022).
